For data set [1], the target named is T1, HMCES SRAP R98E R98E (human) (UniProt Q96FZ2).
T1 sequence: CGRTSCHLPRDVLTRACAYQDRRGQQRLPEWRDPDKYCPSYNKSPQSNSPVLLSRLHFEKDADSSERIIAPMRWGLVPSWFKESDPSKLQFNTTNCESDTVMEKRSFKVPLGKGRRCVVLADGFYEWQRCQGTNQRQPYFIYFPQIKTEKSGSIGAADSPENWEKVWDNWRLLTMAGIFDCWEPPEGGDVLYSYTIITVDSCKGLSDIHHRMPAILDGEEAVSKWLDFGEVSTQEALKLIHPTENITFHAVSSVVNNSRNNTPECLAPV
Briefly: covalent DPC formation, SDS-PAGE. Conditions: N15 = AP site from dU by UDG.

The target in data set [2] is T2, HMCES SRAP E127A E127A (human) (UniProt Q96FZ2).
T2 sequence: T1 sequence with E97R, E126A
The experiment in a line: covalent DPC formation, SDS-PAGE. Conditions: N15 = AP site from dU by UDG.

For another data set, the target named is T3, HMCES SRAP E127A (human, UniProt Q96FZ2 2-270, E127A).
T3 sequence: T1 sequence with E97R, E126A
Briefly: fluorescence polarization.

Positions count from the first letter of the chain named.

Consider “CCCAAAAAAAAAAANAAAAAAAAAAAACCC / GGGTTTTTTTTTTTTATTTTTTTTTTTGGG [30mer AP site dsDNA]”, for which the binding signal (fraction crosslinked) in data set [1] and in data set [2] was 0 each time. In the case of CCCAAAAAAAAAAATAAAAAAAAAAAACCC (ssDNA) [30mer dT-oligonucleotide], the binding result with HMCES SRAP E127A is “binds”.

Source of the values: article PMC10505908.
